Data on 26 molecules can be found in patent US20200140532A1.

In test [1] the target is recombinant cynomolgus Aggrecan G1-IGD-G2 (cynomolgus). Nature of the test: SPR (ProteOn), off-rate only indicative.
For test [2] the target is unchanged. Nature of the test: ELISA on recombinant G1-IGD-G2.
For test [3] the target is unchanged. Nature of the test: periplasmic extract ELISA. For orientation: ELISA stands for enzyme-linked immunosorbent assay.

B1: C01010060 (606A07-ALB26) (VHH, not shown: small tags and cut ends)
VHH: DVQLVESGGGLVQPGGSLRLSCVASGRTFSIYGMGWFRQAPGKEREFVAAINGGSRTYYADSVKGRFTISRDNSKNTVYLQMNSLRPEDTAVYYCAADRSGYGTSLDWWYDYWGQGTLVTVSS
For orientation: koff means a measure of how fast the partners let go of each other. Broadly, the EC50 is the concentration needed to bring the measured effect to its halfway point. On to B1, for which, in test [1], the koff amounted to 0.02 s⁻¹. Moreover, in test [2], the EC50 was 5.4 nM.

B2: C01010113 (ALB26-606A07-606A07) (VHH, not shown: small tags and cut ends)
VHH 1: B1 VHH
VHH 2: B1 VHH
In the case of B2, in test [2], the EC50 was found to be 0.3 nM.

B3: C0101PMP606A07 (VHH, not shown: large carriers)
VHH: B1 VHH
As to B3, in test [3], the OD 450 nm came to 2.41 OD 450 nm.

B4: C0101PMP112A03 (VHH, not shown: large carriers)
VHH: EVQLVESGGGLVQPGGSLRLSCAASGSIFSNRFMYWYRQAPGKQRELVASITLSGSTNYADSVKGRFTISRDNAKNTVYLQMNSLKPEDTAVYYCNTFLQNSFYWGQGTQVTVSS
For B4, in test [3], the OD 450 nm was found to be 2.36 OD 450 nm.

B5: C0101PMP115B08 (VHH, not shown: large carriers)
VHH: KVQLVESGGGLVQPGGSLRLSCAASGFTFSMYAMKWVRQAPGKGLEWVSGINSSGGRTNYAGSVKGRFTISRDNAKNTLYLQMNSLKPEDTAVYYCATDFLGGRNSRGQGTQVTVSS
Turning to B5, the OD 450 nm in test [3] turned out to be 1.18 OD 450 nm.

B6: C0101PMP117G09 (VHH, not shown: large carriers)
VHH: EVQLVESGGGSALPGGSLRLSCAASGITFSSRYMRWYRQAPGRQRELVAAISSGGRTDYVDSVRGRFTLSINNAKNTVYLQMNDLKPEDTAVYYCYRPRMYVDGTYEKELWGQGTLVTVSS
On to B6, for which the OD 450 nm in test [3] was found to be 2.21 OD 450 nm.

B7: C0101PMP604G09 (VHH, not shown: large carriers)
VHH: DVQLVESGGGLVQPGGSLRLSCVASGRTFSSYAMGWFRQAPGKEREFVAAITWSSATTYYADSVKGRFTISRDNSKNTVYLQMNSLRPEDTAVYYCAAARIPVGRRSENWDYWGQGTLVTVSS
Regarding B7, the OD 450 nm in test [3] came to 1.57 OD 450 nm.

B8: C01010097 (608A05-ALB26) (VHH, not shown: small tags and cut ends)
VHH: DVQLVESGGGLVQPGGSLRLSCAASGRTFSTYTMGWFRQAPGKEREFVAAISWSGGTTYYADSVKGRFTISRDNSKNTVYLQMNSLRPEDTAVYYCAARPRYYYYSLYSYDYWGQGTLVTVSS
For the molecule B8, in test [1], the koff is 0.0018 s⁻¹. For the same molecule, the EC50 in test [2] stood at 0.21 nM.

B9: C01010109 (ALB26-608A05-608A05) (VHH, not shown: small tags and cut ends)
VHH 1: B8 VHH
VHH 2: B8 VHH
Consider B9, for which the EC50 in test [2] was 0.091 nM.

B10: C0101PMP608A05 (VHH, not shown: large carriers)
VHH: B8 VHH
Consider B10, for which the OD 450 nm in test [3] was 2.48 OD 450 nm.

B11: C0101PMP604G01 (VHH, not shown: large carriers)
VHH: DVQLVESGGGLVQPGGSLRLSCAASGRTFSSYTMGWFRQAPGKEREFVAAISWSGRTTYYADSVKGRFTISRDNSKNTVYLQMNSLRPEDTAVYYCAAYRRVRYTNLEVWDYWGQGTLVTVSS
In the case of B11, in test [3], the OD 450 nm stood at 1.25 OD 450 nm.

B12: C01010046 (601E08-ALB26) (VHH, not shown: small tags and cut ends)
VHH: DVQLVESGGGLVQPGGSLRLSCTASGRTFSSYAVGWFRQAPGKEREFVAAISRSGRSTYYADSVKGRFTISRDNSKNTVYLQMNSLRPEDTAVYYCAAGLSYYSPHAYYDYWGQGTLVTVSS
Regarding B12, in test [1], the koff was 0.0031 s⁻¹. For the same molecule, the EC50 in test [2] is 6.8 nM.

B13: C0101PMP601E08 (VHH, not shown: large carriers)
VHH: B12 VHH
On to B13, for which the OD 450 nm in test [3] is 1.32 OD 450 nm.

B14: C0101PMP113A01 (VHH, not shown: large carriers)
VHH: EVQLVESGGGLVQPGGSLRLSCSASGFTFSGSWMFWVRQAPGKDYEWVASINSSGGRTYYDDSVKGRFTISRDSAKNTLYLEMNNLKPEDTALYFCARSPRVGSWGQGTQVTVSS
As to B14, in test [3], the OD 450 nm came to 2.57 OD 450 nm.

B15: C0101PMP117D05 (VHH, not shown: large carriers)
VHH: KVQLVESGGGLVQAGGSLRLSCAASRRTFNMMGWFRQAPGKEREFVAYITWNGGDTRYAESVKGRFTVSRDDVKNTMALQMNRLDPLDTAVYYCGVRIHGSNWSTKADDYDNWGQGTQVTVSS
Take B15: the OD 450 nm in test [3] amounted to 2.12 OD 450 nm.

B16: C01010094 (604F02-ALB26) (VHH, not shown: small tags and cut ends)
VHH: DVQLVESGGGLVQPGGSLRLSCAASGRTFSSYTMGWFRQAPGKEREFVAAISWSGGRTYYADSVKGRFTISRDNSKNTVYLQMNSLRPEDTAVYYCAAYRRRRASSNRGLWDYWGQGTLVTVSS
Turning to B16, the koff in test [1] was 0.15 s⁻¹. The EC50 in test [2] was found to be 2.2 nM.

B17: C0101PMP604F02 (VHH, not shown: large carriers)
VHH: B16 VHH
On to B17, for which, in test [3], the OD 450 nm was found to be 1.37 OD 450 nm.

B18: C01010106 (ALB26-604F02-604F02) (VHH, not shown: large carriers; small tags and cut ends)
VHH 1: B16 VHH
VHH 2: B16 VHH
For B18, the EC50 in test [2] is 0.068 nM.

B19: C0101PMP609C09 (VHH, not shown: large carriers)
VHH: DVQLVESGGGLVQPGGSLRLSCAASGTIFSINVMGWYRQAPGKEREFVAAITTGGRTNYADSVKGRFTISRDNSKNTVYLQMNSLRPEDTAVYYCNAEVTTGWVGYSWYDYWGQGTMVTVSS
B19: in test [3], the OD 450 nm amounted to 1.83 OD 450 nm.

B20: C0101PMP102G11 (VHH, not shown: large carriers)
VHH: EVQLVESGGGLVQAGGSLRLSCAASGRSFSSYAMGWFRQAPGKEREFVSIISWSGGSTVYADSVKGRFTISRDNAKNTVYLQMNSLKPEDTAIYYCAAGRLYRATPRPADFGSWGQGTQVTVSS
On to B20, for which, in test [3], the OD 450 nm is 0.6 OD 450 nm.

B21: C0101PMP112A01 (VHH, not shown: large carriers)
VHH: EVQLVESGGGLVQTGGSLRLSCVASGRAFSNYIMGWFRQAPGKERDFVAAINWNGVTTHYTDSVKGRFTISRDNAKSTSYLQMDSLKPDDTAVYFCAARGTVYSRTYGVSEEGYMYWGQGTQVTVSS
With B21, the OD 450 nm in test [3] is 2.5 OD 450 nm.

B22: C01010054 (114F08-ALB26) (VHH, not shown: small tags and cut ends)
VHH: EVQLVESGGGLVQAGGSLRLSCAASGSTFIINVVRWYRRTPGKQRELVATISSGGNANYVDSVRGRFSISRDGAKNAVDLQMNGLKPEDTAVYYCNVPTTHYGGVYYGPYWGQGTQVTVSS
In the case of B22, in test [1], the koff came out at 0.0069 s⁻¹. In test [2], the half-maximal effective concentration (EC50) was found to be 4.4 nM.

B23: C01010118 (ALB26-114F08-114F08) (VHH, not shown: small tags and cut ends)
VHH 1: B22 VHH
VHH 2: B22 VHH
Turning to B23, in test [2], the EC50 is 0.076 nM.

B24: C0101PMP114F08 (VHH, not shown: large carriers)
VHH: B22 VHH
Take B24: the OD 450 nm in test [3] stood at 2.32 OD 450 nm.

B25: C0101PMP606A05 (VHH, not shown: large carriers)
VHH: DVQLVESGGGLVQPGGSLRLSCVASGRTFSIYTMGWFRQAPGKEREFVAAISWSGGRTYYADSVKGRFTISRDNSKNTVYLQMNSLRPEDTAVYYCTAYTGRSYGSYDYWGQGTLVTVSS
In the case of B25, the OD 450 nm in test [3] is 1.24 OD 450 nm.

B26: C0101PMP604B05 (VHH, not shown: large carriers)
VHH: DVQLVESGGGLVQPGGSLRLSCVASGRTFSIYTMAWFRQAPGKEREFVAAISWSSGRTYYADSVKGRFTISRDNSKNTVYLQMNSLRPEDTAVYYCTAYTGPRSGYDYWGQGTLVTVSS
With B26, the OD 450 nm in test [3] was 2.04 OD 450 nm.
